In series [1] the target is T1, TvFDPF3 (holoTvFDPF3) (Trichomonas vaginalis, UniProt A2E972).
T1 construct: gene TVAG_121610; full length, 871 residues, C-terminal His6 (pET30a, E. coli BL21 Star DE3), ~100 kDa on SDS-PAGE; FDP-core head-to-tail dimer; holo preparation with full FAD/FMN
T1 sequence (A2E972 1-871): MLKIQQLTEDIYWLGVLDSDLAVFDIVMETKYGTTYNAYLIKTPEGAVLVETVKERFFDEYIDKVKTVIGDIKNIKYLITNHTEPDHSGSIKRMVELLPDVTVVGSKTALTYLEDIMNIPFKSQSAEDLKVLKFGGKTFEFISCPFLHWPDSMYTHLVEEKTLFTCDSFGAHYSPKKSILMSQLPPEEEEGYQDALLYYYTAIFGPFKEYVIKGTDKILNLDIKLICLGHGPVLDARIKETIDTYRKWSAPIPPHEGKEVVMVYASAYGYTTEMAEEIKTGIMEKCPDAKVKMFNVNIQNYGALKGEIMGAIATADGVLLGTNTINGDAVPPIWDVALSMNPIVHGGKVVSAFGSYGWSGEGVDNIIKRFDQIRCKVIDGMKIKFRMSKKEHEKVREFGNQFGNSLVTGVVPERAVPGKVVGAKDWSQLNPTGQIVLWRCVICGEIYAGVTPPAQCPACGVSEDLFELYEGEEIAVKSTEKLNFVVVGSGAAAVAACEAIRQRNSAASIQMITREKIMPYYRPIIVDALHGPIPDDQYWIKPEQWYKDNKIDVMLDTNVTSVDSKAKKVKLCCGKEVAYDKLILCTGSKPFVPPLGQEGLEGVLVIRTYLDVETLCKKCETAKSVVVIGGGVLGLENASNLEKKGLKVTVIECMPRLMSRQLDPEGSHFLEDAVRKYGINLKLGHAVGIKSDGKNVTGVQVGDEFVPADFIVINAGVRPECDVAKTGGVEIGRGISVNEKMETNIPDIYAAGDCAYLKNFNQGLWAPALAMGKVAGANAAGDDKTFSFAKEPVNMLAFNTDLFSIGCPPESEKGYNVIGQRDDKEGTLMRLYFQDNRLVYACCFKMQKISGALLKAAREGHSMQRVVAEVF
As to the kind of experiment: LC-MS quantification of bound flavin. Type of series: binding. As to conditions: co-purified cofactor, FDP domain. From the text:
LC-MS quantification of bound flavin on TvFDPF3 (holoTvFDPF3)

Series [2] deals with class F flavodiiron protein 3 from Trichomonas vaginalis (TvFDPF3) (Trichomonas vaginalis). As to the kind of experiment: cryo-EM structure; single-particle cryo-EM of holoTvFDPF3 at 0.8 mg/ml in buffer E (50 mM Hepes-NaOH pH 7.5, 150 mM NaCl); map without symmetry 6.6 Å, C2-symmetric map 6.8 Å; homology models of the domains docked into the density.
Series [3] addresses T1, TvFDPF3 (holoTvFDPF3). As to the kind of experiment: anaerobic UV-visible titration, charge-transfer band at […] nm. Type of series: binding.
Substrate in series [4]: NC(=O)C1=CN([C@@H]2O[C@H](COP(=O)(O)OP(=O)(O)OC[C@H]3O[C@@H](n4cnc5c(N)ncnc54)[C@H](O)[C@@H]3O)[C@@H](O)[C@H]2O)C=CC1
As to the kind of experiment: purified protein. In kind it is biochemical, Trichomonas vaginalis. The settings on record: O2 of air-saturated buffer, 50 mM Hepes-NaOH pH 7.5, 150 mM NaCl, 37 °C.

Substrate in series [5]: NC(=O)C1=CN([C@@H]2O[C@H](COP(=O)(O)OP(=O)(O)OC[C@H]3O[C@@H](n4cnc5c(N)ncnc54)[C@H](OP(=O)(O)O)[C@@H]3O)[C@@H](O)[C@H]2O)C=CC1
As to the kind of experiment: purified protein. In kind it is biochemical, Trichomonas vaginalis. As to conditions: O2 of air-saturated buffer, 50 mM Hepes-NaOH pH 7.5, 150 mM NaCl, 37 °C.

Setting [6] is: preparation with 0.32 FAD and 0.009 FMN per monomer.
Setting [7] is: preparation with 0.32 FAD and 0.009 FMN per monomer, kcat per monomer.
Setting [8] is: preparation with 0.32 FAD and 0.009 FMN per monomer, NAD(P)H tested 0.5-600 μM.
[9] abbreviates: preparation with 0.32 FAD and 0.009 FMN per monomer, kcat per monomer, NAD(P)H tested 0.5-600 μM.
[10] abbreviates: preparation with about 1% FMN, kcat per monomer.
[11] abbreviates: preparation with about 1% FMN, kcat per monomer, NAD(P)H tested 0.5-600 μM.
[12] abbreviates: holoTvFDPF3 (full FAD and FMN), kcat per monomer.

`Cc1cc2nc3c(=O)[nH]c(=O)nc-3n(C[C@H](O)[C@H](O)[C@H](O)COP(=O)(O)O)c2cc1C` [FMN]: at TvFDPF3 (holoTvFDPF3) [1], the “FMN per protein monomer” value came to 0.92 ± 0.09 mol per mol monomer.
Usually stoichiometry N stands for a count of units in the complex or per binding partner. Turning to “class F flavodiiron protein 3 from Trichomonas vaginalis (TvFDPF3) (enzyme)”, in series [2], the stoichiometry N was determined as 2.
In general, Kd refers to a measure of binding affinity in units of concentration. Higher therefore signals lower affinity. `NC(=O)c1ccc[n+]([C@@H]2O[C@H](COP(=O)(O)OP(=O)(O)OC[C@H]3O[C@@H](n4cnc5c(N)ncnc54)[C@H](O)[C@@H]3O)[C@@H](O)[C@H]2O)c1` [NAD^+]: the equilibrium dissociation constant (Kd) on TvFDPF3 (holoTvFDPF3) [3] was ~130 nM.

B1: TvFDPF2 (Trichomonas vaginalis G3) (protein)
chain: MLKIQQLTEDIYWLGVLDSNLAVFDIIMETKYGTTYNAYLIKTPEGAVLVETVKETFFDEYIEKVKSVIGDIHKIKYLITNHTEPDHSGSIKKMIELIPDLTVVGSKTALTYLEDIVNIPFKGHSAEDLKVLKFGGKSFEFISCPFLHWPDSMYTWVPEEKTLFTCDSFGAHYSPKKSILMSQLPPEEEEGYQDALLYYYTAIFGPFKEYVIKGTDKILNLDIKLVGLGHGPVLDARIKETIDTYRKWSAPLPTHEGKEVVMVYASAYGYTTEMAEEIKAGILAKIPDAKIKMFNVNIQNYGGLKGEIMNAIATADGVLLGTNTINGDAVPPVWDVALSMNPIVHGGKIVTAFGSYGWSGEGVDNIIARFDQIRCKVIDGCKIKFRMSKKEHGKVNEFGQQFGEALITGKVPERAVPGKVVGAKDWSELNPTGAVVLWRCVICGEIYAGVTPPLQCPACGVGQDLFELYEAEQVTHKSTEPLNYVIVGSGAAAVASIEAIRARNAVAKITMISREKVMPYYRPIIVDALNAEIAPDKYFLKNEEWYKENKIEIKLDTSVTAIDTKAKKVKLCRGDELAYDKLILATGSRPFIPPIGHEGLSGVIVIRTSADVDQLKAACQTAKKAVVIGGGVLGLENASAIKEKGVAVTVVECMPRLMARQLDTEASAVLLEEVKKFGVDVRLGMTVSIKGDGKHVTGVQVGEEFIPADFVVVNAGVRAESEVAAAAGIKCGRGIIVNNKMETNVPDVYAAGDCAFLDNMNQGLWAPALAMGKVAGANACGDNKTFAFAIEPVSMIAMGTDLFACGNPPESAQGYNVVSQKDDKEGSAIKLYFKDNRLVYAAGFRIQKISGSLLKGVREGRSLERIMAEIF
notes: full length, 871 residues, C-terminal His6 (pET30a, E. coli BL21 Star DE3); aggregation-prone; poor FAD and FMN occupancy
By kcat is commonly meant the maximal rate divided by the concentration of active sites. What is called kcat/Km is the turnover number divided by the Michaelis constant. In general, Km refers to the substrate concentration at which the rate is half of its maximum. The Vmax is the top rate of the reaction or transport when substrate is in excess. Take B1: in the series “purified protein [4]” (setting [6]), the turnover number (kcat) worked out at 9.6 ± 0.3 s⁻¹ and the kcat/Km was 530000 ± 60000 M⁻¹ s⁻¹. Further, in the series “purified protein [4]” (setting [7]), the Km turned out to be 18 ± 2 µM and the Vmax turned out to be 6.1 µmol/min/mg. Further, in the series “purified protein [5]” (setting [8]), the catalytic constant (kcat) is 1.7 ± 0.3 s⁻¹ and the kcat/Km turned out to be 1400 ± 300 M⁻¹ s⁻¹. Besides, in the series “purified protein [5]” (setting [9]), the Km is 1171 ± 208 µM and the maximum rate (Vmax) is 1.1 µmol/min/mg.

B2: TvFDPF1 (Trichomonas vaginalis G3) (protein)
chain: MLKIQQLTEDIYWLGALDPTLAVFDIIMETKYGTTYNAYMIKTPAGAVLVETVKECFFEEYIEKVKSVIGDINNIKYLITNHTEPDHSGSIKKIIEIIPGLTVIGSKTALTYLEDIVNIPFRGHSAEDLKALKFGGKTFEFISCPFLHWPDSMYTWLPEEQALFTCDSFGAHYSPKKSILMSELPPEEEDGYQEALLYYYTAIFGPFKDFVIKGTDKILDLDIKIICLGHGPVLDARVQETIDTYRKWSEPALPHPGIEVVMVYASAYGYTTEMAEEIKNGILDKIPDASVKMYNVNIQNYGGMKADIMNSIATADGVLLGTNTINGDAVPPIWDVALSMNPIVHGGKIVTAFGSYGWSGEGVDNIINRFDKIRCKVVEPIKIKFRMSKKEHKQVREFGRRFADCLESGEVPDRAVPGRVVGAKDWSELNPTGAIVLWRCVICGEIYAGVTPPLVCPACGVGQDLFELYEAEEVTCSSFENLKFVVVGSGAAAVSAIDAIRARNTVASITMLTREKIMPYYRPIIVDALNSEISPENYYLKNEDWYTENNITVKLGTTVKSIDTARKSLTLSDGSTMQYDRLILATGSRPFVPPIGHEGLTGVYVIRTSNDVELLKETCKTAKKAVVIGGGVLGLENASAIKDRGLSVTVVECMPRLMARQLDPEASEILQGFVRDYGVDLRMGQCVVIKGDGKKVTGVQVGDEFISADFVVVNAGVRAESEVAAAAGIECSRGITVNNKMETSAQDVYAAGDCAYMENINQGLWAPALAMGKVAGANAAGDSKTFHFSIEPVNMIAMGTDLFAVGIPPDSPKGYNVISQRDEKEGTAIKLYFKDNRLVYAAGFKCQKQSGFLLKGVRNGHTLQHVLAELF
notes: full length, 871 residues, C-terminal His6 (pET30a, E. coli BL21 Star DE3); 272 kDa by gel filtration
Consider B2, for which, in the series “purified protein [4]” (setting [10]), the Michaelis constant (Km) was found to be 2.9 ± 0.8 µM, the maximum rate (Vmax) turned out to be 4.9 µmol/min/mg, the kcat turned out to be 7.8 ± 1.9 s⁻¹ and the kcat/Km is 2.6e+06 ± 900000 M⁻¹ s⁻¹. For the same molecule, in “purified protein [5]” (setting [11]), the Km came out at 1475 ± 486 µM, the maximal velocity (Vmax) came to 4.9 µmol/min/mg, the catalytic constant (kcat) is 7.8 ± 3.3 s⁻¹ and the specificity constant (kcat/Km) was 5200 ± 2800 M⁻¹ s⁻¹.

B3: TvFDPF3 (holoTvFDPF3) (Trichomonas vaginalis G3) (protein)
chain: T1 sequence (A2E972 1-871)
notes: full length, 871 residues, C-terminal His6 (pET30a, E. coli BL21 Star DE3), ~100 kDa on SDS-PAGE; FDP-core head-to-tail dimer; holo preparation with full FAD/FMN
For the molecule B3, in the series “purified protein [4]” (setting [12]), the Michaelis-Menten constant (Km) came to 56 ± 2 µM, the maximal velocity (Vmax) came to 291 µmol/min/mg, the turnover number (kcat) is 466 ± 42 s⁻¹ and the specificity constant (kcat/Km) came out at 8.3e+06 ± 800000 M⁻¹ s⁻¹. Also, in the series “purified protein [5]” (setting [12]), the Michaelis constant (Km) was 427 ± 160 µM, the Vmax came out at 11 µmol/min/mg, the turnover number (kcat) turned out to be 18 ± 6 s⁻¹ and the kcat/Km stood at 41000 ± 21000 M⁻¹ s⁻¹.
